Legend:
[1] = biological target: 6xHis-tagged RcsF (E. coli) (UniProt P69411); assay: BLI
[2] = biological target: Untagged BamA (E. coli), P0A940; assay: BLI; conditions: remark: other sources report otherwise
[3] = biological target: BamAB sub-complex (E. coli, UniProt P0A940;P77774, lipid moiety); assay: native gel or EMSA
[4] = biological target: BamABCDE holocomplex (E. coli, UniProt P0A940;P77774;P0A903;P0AC02;P0A937, lipid moiety | lipid moiety | lipid moiety | lipid moiety); assay: native gel or EMSA
Sequence of BamABCDE holocomplex (P77774 20-392, chain 2 of 4): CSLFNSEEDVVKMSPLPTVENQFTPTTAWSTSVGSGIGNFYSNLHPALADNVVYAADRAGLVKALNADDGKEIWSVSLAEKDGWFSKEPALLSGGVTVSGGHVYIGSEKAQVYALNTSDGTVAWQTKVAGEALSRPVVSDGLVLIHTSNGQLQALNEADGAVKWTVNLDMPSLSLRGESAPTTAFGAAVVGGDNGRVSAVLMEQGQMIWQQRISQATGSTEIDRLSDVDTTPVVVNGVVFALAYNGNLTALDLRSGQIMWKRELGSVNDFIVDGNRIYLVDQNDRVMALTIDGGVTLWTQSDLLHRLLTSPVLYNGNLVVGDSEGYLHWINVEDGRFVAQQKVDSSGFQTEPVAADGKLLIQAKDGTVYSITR
Sequence of BamABCDE holocomplex (P0A903 25-344, chain 3 of 4): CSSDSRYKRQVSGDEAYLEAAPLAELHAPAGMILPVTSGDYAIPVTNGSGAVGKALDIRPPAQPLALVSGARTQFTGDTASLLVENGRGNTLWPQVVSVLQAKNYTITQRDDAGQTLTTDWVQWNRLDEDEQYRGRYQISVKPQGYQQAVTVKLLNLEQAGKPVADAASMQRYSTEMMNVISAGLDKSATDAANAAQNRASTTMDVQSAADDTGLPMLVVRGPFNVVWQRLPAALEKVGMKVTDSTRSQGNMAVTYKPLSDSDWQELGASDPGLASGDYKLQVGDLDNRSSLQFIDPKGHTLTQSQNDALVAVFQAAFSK
Sequence of BamABCDE holocomplex (P0AC02 20-245, chain 4 of 4): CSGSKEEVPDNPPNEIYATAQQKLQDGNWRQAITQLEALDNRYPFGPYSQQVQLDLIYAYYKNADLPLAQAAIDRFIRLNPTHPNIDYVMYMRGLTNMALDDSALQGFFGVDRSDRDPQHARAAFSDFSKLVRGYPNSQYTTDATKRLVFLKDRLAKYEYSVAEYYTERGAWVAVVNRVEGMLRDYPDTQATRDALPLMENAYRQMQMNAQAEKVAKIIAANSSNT
Sequence of BamABCDE holocomplex (P0A937 20-113, chain 5 of 4): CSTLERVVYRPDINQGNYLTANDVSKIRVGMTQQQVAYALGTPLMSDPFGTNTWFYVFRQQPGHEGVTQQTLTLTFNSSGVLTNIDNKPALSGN

Sequence of BamAB sub-complex (P77774 20-392, one chain of several): as the sequence (P77774 20-392, chain 2 of 4) above

“Untagged BamA (from UniProt P0A940 21-810) (natural protein; other documents disagree on this pair)” showed a Kd [1] of 420 nM.

B1: 6xHis-tagged RcsF, P69411 16-134 (natural protein)
chain: CSMLSRSPVEPVQSTAPQPKAEPAKPKAPRATPVRIYTNAEELVGKPFRDLGEVSGDSCQASNQDSPPSIPTARKRMQINASKMKANAVLLHSCEVTSGTPGCYRQAVCIGSALNITAK
modifications: here or on the partner: biotin (EZ-Link NHS-PEG4-biotin) where immobilised on streptavidin tips
With B1 the Kd [2] was 350 nM.

B2: RcsF (natural protein)
chain: B1 chain
modifications: lipid anchor
B2: binds [3]; binds [4].

From PMC7610366 (Nature chemical biology, 2020)
